Laboratory results from patent US20260284219A1, “ANTIBODY CONJUGATE, AND USES THEREOF” (Acepodia Biotechnologies, Ltd., priority 2024, published 2026).

Legend:
[1] = test system: human triple-negative breast cancer MDA-MB-231 cells; assay: Cytotoxicity assay (CellTiter-Glo 2.0), MDA-MB-231; format: cell-based; settings: for cytotoxicity against MDA-MB-231: atezolizumab conjugates, 0.01-500 nM for 6 days; for cancer cells killed compared with atezolizumab: MDA-MB-231, 6 days, FIG. 6B
Experimental: Each condition was performed in triplicate. On the harvesting day, the number of viable cells in each well were measured according to the CellTiter-Glo™ 2.0 Assay process.

[2] = Aggregation by size exclusion chromatography HPLC (SEC-HPLC); format: physicochemical; settings: SEC-HPLC of DAR10 dual-payload antibody drug conjugates
[3] = target: His-tagged human PDL1 recombinant protein (Homo sapiens, UniProt Q9NZQ7); assay: Binding affinity ELISA on plates coated with PDL1; settings: for EC50: N = 3; for EC50 of the conjugate relative to EC50 of atezolizumab: PDL1 binding; for PDL1 binding signal compared with atezolizumab: among the concentration range, signal at 450 nm
Chain of His-tagged human PDL1 recombinant protein (Q9NZQ7 19-290): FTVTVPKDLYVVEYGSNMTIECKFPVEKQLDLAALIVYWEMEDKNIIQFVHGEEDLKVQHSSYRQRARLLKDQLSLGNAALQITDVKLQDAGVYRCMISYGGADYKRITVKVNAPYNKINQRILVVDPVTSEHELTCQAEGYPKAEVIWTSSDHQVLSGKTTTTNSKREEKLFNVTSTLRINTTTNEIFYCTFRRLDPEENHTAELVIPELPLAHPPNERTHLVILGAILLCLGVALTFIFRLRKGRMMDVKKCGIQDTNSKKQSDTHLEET
Experimental: The blocked His-tagged human PDL1 recombinant protein-coated white plate was then incubated with atezolizumab, atezolizumab-govitecan (DAR10), or the isotype control antibody at different concentrations at 37° C. for 1 hour. The unbound atezolizumab, atezolizumab-govitecan (DAR10), or the isotype control antibody was washed away with PBST.
The blocked His-tagged human PDL1 recombinant protein-coated white plate was then incubated with atezolizumab or atezolizumab-deruxtecan-vcMMAE (DAR 10) at different concentrations at 37° C. for 1 hour. The unbound atezolizumab or atezolizumab-deruxtecan-vcMMAE (DAR 10) was washed away with PBST.

Row | Substance | cytotoxicity against MDA-MB-231 [1] | protein aggregation [2] | EC50 ([3]; Embodiment 2-3, FIG. 9) | EC50 of the conjugate relative to EC50 of atezolizumab [3] | PDL1 binding signal compared with atezolizumab [3] | cancer cells killed compared with atezolizumab [1] | cytotoxicity against MDA-MB-231 ([1]; listed as PDP-PDL1 mab-govitecan) | EC50 ([3]; Embodiment 1-3, FIG. 5)
1 | atezolizumab-deruxtecan-vcMMAE (DAR 10): Atezolizumab with 8 deruxtecan on cysteines and 2 vcMMAE on light-chain lysines (DAR10) | better cytotoxicity | resistant to protein aggregation | 1.56 nM | less than 2 times | no significant difference of signal detection | – | – | –
2 | atezolizumab-govitecan (DAR8): Atezolizumab with 8 govitecan conjugated to cysteines by procedure (A) only (DAR8) | – | – | – | – | – | 25% | – | –
3 | atezolizumab-govitecan (DAR10): Atezolizumab with 8 govitecan on light and heavy chain cysteines and 2 govitecan on light-chain lysines (DAR10) | better cytotoxicity | resistant to protein aggregation | – | less than 2 times | no significant difference of signal detection | 50% | exhibits cytotoxicity | 0.75 nM
4 | atezolizumab: commercially available anti-PDL1 IgG1 antibody (DAR0) [reference compound] | – | – | 1.4 nM | – | – | – | – | 0.55 nM
